From PMC5566498, “SIRT7 antagonizes TGF-β signaling and inhibits breast cancer metastasis” (Nature Communications, 2017) come the findings set out here.

The target of the test is T1, 6× His-tagged SMAD4 (UniProt Q13485 1-552).
T1 construct: SMAD4; also called 6× His-SMAD4; source: purified from bacterial culture
T1 sequence (looked up): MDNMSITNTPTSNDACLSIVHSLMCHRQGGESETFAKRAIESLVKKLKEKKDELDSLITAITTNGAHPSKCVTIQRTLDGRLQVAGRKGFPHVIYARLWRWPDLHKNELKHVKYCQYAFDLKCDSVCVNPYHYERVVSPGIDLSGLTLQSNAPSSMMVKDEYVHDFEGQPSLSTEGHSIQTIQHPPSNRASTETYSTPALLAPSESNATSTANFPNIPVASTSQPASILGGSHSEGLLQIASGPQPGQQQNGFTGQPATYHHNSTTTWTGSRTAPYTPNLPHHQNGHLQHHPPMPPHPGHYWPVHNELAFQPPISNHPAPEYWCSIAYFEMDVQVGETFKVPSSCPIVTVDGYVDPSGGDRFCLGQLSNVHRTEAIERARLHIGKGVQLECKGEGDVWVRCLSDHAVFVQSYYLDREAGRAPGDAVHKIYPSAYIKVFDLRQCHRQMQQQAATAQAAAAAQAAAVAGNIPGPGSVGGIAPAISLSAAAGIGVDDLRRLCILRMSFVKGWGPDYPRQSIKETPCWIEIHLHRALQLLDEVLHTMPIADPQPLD
In words: pull-down; 1 µg GST-SIRT7 on Glutathione-Sepharose 4B, incubated with 6× His-SMAD4 for 2 h at 4 °C in 120 mM KCl, 20 mM Tris-HCl pH 7.9, 5 mM MgCl2, 0.2 mM EDTA, 10% glycerol, 0.2% NP-40; immunoblot. As to conditions: both partners purified.

B1: GST-SIRT7 (enzyme, UniProt Q9NRC8 1-400, looked up)
chain: MAAGGLSRSERKAAERVRRLREEQQRERLRQVSRILRKAAAERSAEEGRLLAESADLVTELQGRSRRREGLKRRQEEVCDDPEELRGKVRELASAVRNAKYLVVYTGAGISTAASIPDYRGPNGVWTLLQKGRSVSAADLSEAEPTLTHMSITRLHEQKLVQHVVSQNCDGLHLRSGLPRTAISELHGNMYIEVCTSCVPNREYVRVFDVTERTALHRHQTGRTCHKCGTQLRDTIVHFGERGTLGQPLNWEAATEAASRADTILCLGSSLKVLKKYPRLWCMTKPPSRRPKLYIVNLQWTPKDDWAALKLHGKCDDVMRLLMAELGLEIPAYSRWQDPIFSLATPLRAGEEGSHSRKSLCRSREEAPPGDRGAPLSSAPILGGWFGRGCTKRTKRKKVT
notes: SIRT7; also called purified GST-SIRT7; recombinant GST-SIRT7; source: recombinant, purified
With B1, the binding result is “binds”.
